Biological target: IgE of dust mite allergic patient Donor 11 (serum IgE; IgE on the donor's basophils in the histamine release …)
Test: cell-based or functional assay

B1: Der p 1 variant DP060 (S54N, Q68F) (other)
chain: TNACSINGNAPAEIDLRQMRTVTPIRMQGGCGSCWAFSGVAATESAYLAYRNQNLDLAEQELVDCASFHGCHGDTIPRGIEYIQHNGVVQESYYRYVAREQSCRRPNAQRFGISNYCQIYPPNVNKIREALAQTHSAIAVIIGIKDLDAFRHYDGRTIIQRDNGYQPNYHAVNIVGYSNAQGVDYWIVRNSWDTNWGDNGYGYFAANIDLMMIEEYPYVVIL
With B1 the “potency to induce histamine release in human basophil assay, relative to nDer p 1” value was 20 fold.

Source: patent US20070225207A1 (NOVOZYMES A S, published 2007)
